Laboratory results published in paper PMC6687201, “Atg11 tethers Atg9 vesicles to initiate selective autophagy” (PLoS Biology, 2019).
Blank lines part the entries; values can stand above or below the binder they belong to.

Legend:
[1] = target: the molecule itself; assay: SEC; purified Atg11^ΔC on a Superose 6 column
[2] = target: T1, myc-tagged full length Atg11 (S. cerevisiae, UniProt Q12527 1-1178); assay: co-IP; IP of myc-tagged Atg11 (anti-myc, Protein A magnetic beads), co-IP of HA-tagged Atg9; lysates of WT, atg13Δ, atg17Δ, atg29Δ and atg31Δ cells, log phase and starved; 25 mM Tris-HCl pH 7.2, 150 mM NaCl, 0.2% NP-40; settings: partners not purified
T1 construct: Atg11, scaffolding protein of selective autophagy, yeast; also called Atg11-myc; myc-Atg11; source: yeast cells expressing myc-tagged Atg11, in lysate
T1 sequence (looked up): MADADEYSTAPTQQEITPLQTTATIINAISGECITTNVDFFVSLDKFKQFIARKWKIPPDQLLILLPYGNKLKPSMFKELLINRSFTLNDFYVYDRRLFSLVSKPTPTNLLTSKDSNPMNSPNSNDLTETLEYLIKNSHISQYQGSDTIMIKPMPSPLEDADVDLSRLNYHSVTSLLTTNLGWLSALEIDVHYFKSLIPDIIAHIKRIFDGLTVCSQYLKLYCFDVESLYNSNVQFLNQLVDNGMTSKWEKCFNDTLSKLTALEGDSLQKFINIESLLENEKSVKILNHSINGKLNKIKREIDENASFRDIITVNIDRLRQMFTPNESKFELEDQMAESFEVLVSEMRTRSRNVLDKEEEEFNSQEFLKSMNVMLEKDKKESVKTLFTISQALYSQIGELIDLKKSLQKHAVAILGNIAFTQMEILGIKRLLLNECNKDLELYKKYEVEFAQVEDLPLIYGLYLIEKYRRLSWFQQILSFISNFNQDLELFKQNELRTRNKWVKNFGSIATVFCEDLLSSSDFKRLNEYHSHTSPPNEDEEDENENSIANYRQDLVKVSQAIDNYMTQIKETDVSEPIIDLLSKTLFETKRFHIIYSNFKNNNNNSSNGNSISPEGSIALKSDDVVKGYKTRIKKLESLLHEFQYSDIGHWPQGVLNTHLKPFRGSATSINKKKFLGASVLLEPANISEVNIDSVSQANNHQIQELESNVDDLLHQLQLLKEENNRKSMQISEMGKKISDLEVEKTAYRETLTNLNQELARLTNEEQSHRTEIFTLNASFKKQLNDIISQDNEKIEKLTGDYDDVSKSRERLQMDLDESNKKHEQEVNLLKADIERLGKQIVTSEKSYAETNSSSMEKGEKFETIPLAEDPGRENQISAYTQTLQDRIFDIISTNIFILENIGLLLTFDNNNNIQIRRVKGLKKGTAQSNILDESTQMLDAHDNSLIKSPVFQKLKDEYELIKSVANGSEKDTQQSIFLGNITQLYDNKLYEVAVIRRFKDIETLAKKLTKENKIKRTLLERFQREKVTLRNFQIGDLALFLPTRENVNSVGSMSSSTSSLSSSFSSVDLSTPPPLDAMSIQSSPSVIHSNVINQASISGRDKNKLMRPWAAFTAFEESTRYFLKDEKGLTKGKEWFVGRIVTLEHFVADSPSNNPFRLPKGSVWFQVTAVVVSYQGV

[3] = target: T2, recombinant purified Atg11 (Atg11-His6) (yeast, UniProt Q12527 1-1178, Atto565 label in the GUV experiments); assay: cross-linking; Sulfo-LC-SDA (spacer arm 12.5 Å) conjugated to primary amines of Atg32^SE, mixed with Atg11, 365 nm UV light for up to 15 min, SDS-PAGE; settings: both partners purified
T2 construct: N-terminal residual glycine-proline from PreScission protease digestion; Atg11, yeast; expressed from pCoofy37-Atg11; measured molecular weight 136 kDa; also called His-tagged Atg11; Atg11^Atto565; source: E. coli BL21 (DE3), coexpressed with chaperones from pG-KJE8, purified (Ni-NTA, PreScission digestion, gel filtration); not shown: His6, C-terminal, kept
T2 sequence: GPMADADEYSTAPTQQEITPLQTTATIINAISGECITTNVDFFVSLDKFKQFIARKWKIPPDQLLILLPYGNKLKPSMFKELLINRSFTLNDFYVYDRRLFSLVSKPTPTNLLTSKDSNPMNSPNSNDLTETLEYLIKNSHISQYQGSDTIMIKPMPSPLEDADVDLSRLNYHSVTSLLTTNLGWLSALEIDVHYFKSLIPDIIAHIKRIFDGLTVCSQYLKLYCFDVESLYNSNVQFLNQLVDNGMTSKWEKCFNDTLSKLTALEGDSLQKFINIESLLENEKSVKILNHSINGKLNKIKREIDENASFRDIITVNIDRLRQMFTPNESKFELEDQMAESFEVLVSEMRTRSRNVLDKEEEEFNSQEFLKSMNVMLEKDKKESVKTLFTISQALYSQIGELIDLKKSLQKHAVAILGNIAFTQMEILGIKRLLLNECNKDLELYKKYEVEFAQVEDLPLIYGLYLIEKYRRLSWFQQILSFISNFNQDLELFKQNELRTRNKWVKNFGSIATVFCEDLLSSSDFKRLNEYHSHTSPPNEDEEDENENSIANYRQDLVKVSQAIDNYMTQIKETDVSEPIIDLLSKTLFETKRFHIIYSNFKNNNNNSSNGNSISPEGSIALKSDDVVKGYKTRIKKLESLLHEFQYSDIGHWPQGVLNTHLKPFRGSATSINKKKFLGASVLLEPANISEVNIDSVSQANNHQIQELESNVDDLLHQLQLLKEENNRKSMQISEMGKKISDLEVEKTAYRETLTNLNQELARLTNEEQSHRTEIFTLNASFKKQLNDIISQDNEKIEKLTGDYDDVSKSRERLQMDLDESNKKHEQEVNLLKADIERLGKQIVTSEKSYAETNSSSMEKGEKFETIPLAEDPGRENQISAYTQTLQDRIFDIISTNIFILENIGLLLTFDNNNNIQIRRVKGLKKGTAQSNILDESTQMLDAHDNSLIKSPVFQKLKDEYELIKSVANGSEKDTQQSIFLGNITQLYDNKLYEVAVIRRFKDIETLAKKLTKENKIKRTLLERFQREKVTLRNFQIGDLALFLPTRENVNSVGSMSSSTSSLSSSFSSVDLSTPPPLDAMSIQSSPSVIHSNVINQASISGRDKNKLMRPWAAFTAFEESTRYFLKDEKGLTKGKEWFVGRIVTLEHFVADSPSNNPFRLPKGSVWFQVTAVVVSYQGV

B1: recombinant purified Atg11^ΔC (residues 1-667) (domain or fragment, yeast, UniProt Q12527 1-667, looked up)
chain: MADADEYSTAPTQQEITPLQTTATIINAISGECITTNVDFFVSLDKFKQFIARKWKIPPDQLLILLPYGNKLKPSMFKELLINRSFTLNDFYVYDRRLFSLVSKPTPTNLLTSKDSNPMNSPNSNDLTETLEYLIKNSHISQYQGSDTIMIKPMPSPLEDADVDLSRLNYHSVTSLLTTNLGWLSALEIDVHYFKSLIPDIIAHIKRIFDGLTVCSQYLKLYCFDVESLYNSNVQFLNQLVDNGMTSKWEKCFNDTLSKLTALEGDSLQKFINIESLLENEKSVKILNHSINGKLNKIKREIDENASFRDIITVNIDRLRQMFTPNESKFELEDQMAESFEVLVSEMRTRSRNVLDKEEEEFNSQEFLKSMNVMLEKDKKESVKTLFTISQALYSQIGELIDLKKSLQKHAVAILGNIAFTQMEILGIKRLLLNECNKDLELYKKYEVEFAQVEDLPLIYGLYLIEKYRRLSWFQQILSFISNFNQDLELFKQNELRTRNKWVKNFGSIATVFCEDLLSSSDFKRLNEYHSHTSPPNEDEEDENENSIANYRQDLVKVSQAIDNYMTQIKETDVSEPIIDLLSKTLFETKRFHIIYSNFKNNNNNSSNGNSISPEGSIALKSDDVVKGYKTRIKKLESLLHEFQYSDIGHWPQGVLNTHLKPFRGSA
notes: Atg11, yeast, N-terminal fragment, residues 1-667; expressed from pCoofy37-Atg11^ΔC; molecular weight 78.2 kDa; Made from the same vector as full-length Atg11, so it may also carry a C-terminal His6 tag and an N-terminal Gly-Pro; also called purified Atg17-like domain of Atg11; source: E. coli BL21 (DE3), coexpressed with chaperones from pG-KJE8, purified
- stoichiometry N [1]: 2

- fold binding in atg17Δ against wild-type cells, upon starvation [2]: 4.1 fold
B2: HA-tagged Atg9 (natural protein, S. cerevisiae, UniProt Q12142 1-997, looked up)
chain: MERDEYQLPNSHGKNTFLSRIFGLQSDEVNPSLNSQEMSNFPLPDIERGSSLLHSTNDSREDVDENDLRVPESDQGTSTEEEDEVDEEQVQAYAPQISDGLDGDHQLNSVTSKENVLETEKSNLERLVEGSTDDSVPKVGQLSSEEEEDNEFINNDGFDDDTPLFQKSKIHEFSSKKSNTIEDGKRPLFFRHILQNNRPQRDTQKLFTSSNAIHHDKDKSANNGPRNINGNQKHGTKYFGSATQPRFTGSPLNNTNRFTKLFPLRKPNLLSNISVLNNTPEDRINTLSVKERALWKWANVENLDIFLQDVYNYYLGNGFYCIILEKILNICTLLFVVFVSTYMGHCVDYSKLPTSHRVSDIIIDKCYSNSITGFTKFFLWMFYFFVILKIVQLYFDVQKLSELQNFYKYLLNISDDELQTLPWQNVIQQLMYLKDQNAMTANVVEVKAKNRIDAHDVANRIMRRENYLIALYNSDILNLSLPIPLFRTNVLTKTLEWNINLCVMGFVFNESGFIKQSILKPSQREFTREELQKRFMLAGFLNIILAPFLVTYFVLLYFFRYFNEYKTSPGSIGARQYTPIAEWKFREYNELYHIFKKRISLSTTLANKYVDQFPKEKTNLFLKFVSFICGSFVAILAFLTVFDPENFLNFEITSDRSVIFYITILGAIWSVSRNTITQEYHVFDPEETLKELYEYTHYLPKEWEGRYHKEEIKLEFCKLYNLRIVILLRELTSLMITPFVLWFSLPSSAGRIVDFFRENSEYVDGLGYVCKYAMFNMKNIDGEDTHSMDEDSLTKKIAVNGSHTLNSKRRSKFTAEDHSDKDLANNKMLQSYVYFMDDYSNSENLTGKYQLPAKKGYPNNEGDSFLNNKYSWRKQFQPGQKPELFRIGKHALGPGHNISPAIYSTRNPGKNWDNNNNGDDIKNGTNNATAKNDDNNGNNDHEYVLTESFLDSGAFPNHDVIDHNKMLNSNYNGNGILNKGGVLGLVKEYYKKSDVGR
notes: Atg9, transmembrane autophagy protein, yeast; also called HA-Atg9; source: yeast cells expressing HA-tagged Atg9, in lysate

- binding result [3]: binds
B3: Atg32^SE (Atg32^1-376 with the phosphomimetic mutation S114E) (domain or fragment, yeast, UniProt P40458 1-376, looked up)
chain: MVLEYQQREGKGSSSKSMPPDSSSTTIHTCSEAQTGEDKGLLDPHLSVLELLSKTGHSPSPMGQNLVTSIDISGNHNVNDSISGSWQAIQPLDLGASFIPERCSSQTTNGSILESSDTSEEEQELLQAPAADIINIIKQGQEGANVVSPSHPFKQLQKIISLPLPGKEKTPFNEQDDDGDEDEAFEEDSVTITKSLTSSTNSFVMPKLSLTQKNPVFRLLILGRTGSSFYQSIPKEYQSLFELPKYHDSATFPQYTGIVIIFQELREMVSLLNRIVQYSQGKPVIPICQPGQVIQVKNVLKSFLRNKLVKLLFPPVVVTNKRDLKKMFQRLQDLSLEYGEDVNEEDNDDEAIHTKSRSYCRNKKAENSKKKSPKSN
modifications: PacificBlue label in the GUV experiment; Sulfo-LC-SDA conjugated to primary amines in the cross-linking experiment
notes: Atg32, mitochondrial cargo receptor, yeast; N-terminal cytoplasmic domain, residues 1-376; also called Atg32^1-376,SE; Sulfo-LC-Atg32^SE
